Laboratory results taken from article PMC10500007.
Substitutions are numbered along the chain they refer to. Names may count otherwise.

T1: human integrin αvβ6 (soluble, construct not stated), P06756;P18564
T1 chain 1: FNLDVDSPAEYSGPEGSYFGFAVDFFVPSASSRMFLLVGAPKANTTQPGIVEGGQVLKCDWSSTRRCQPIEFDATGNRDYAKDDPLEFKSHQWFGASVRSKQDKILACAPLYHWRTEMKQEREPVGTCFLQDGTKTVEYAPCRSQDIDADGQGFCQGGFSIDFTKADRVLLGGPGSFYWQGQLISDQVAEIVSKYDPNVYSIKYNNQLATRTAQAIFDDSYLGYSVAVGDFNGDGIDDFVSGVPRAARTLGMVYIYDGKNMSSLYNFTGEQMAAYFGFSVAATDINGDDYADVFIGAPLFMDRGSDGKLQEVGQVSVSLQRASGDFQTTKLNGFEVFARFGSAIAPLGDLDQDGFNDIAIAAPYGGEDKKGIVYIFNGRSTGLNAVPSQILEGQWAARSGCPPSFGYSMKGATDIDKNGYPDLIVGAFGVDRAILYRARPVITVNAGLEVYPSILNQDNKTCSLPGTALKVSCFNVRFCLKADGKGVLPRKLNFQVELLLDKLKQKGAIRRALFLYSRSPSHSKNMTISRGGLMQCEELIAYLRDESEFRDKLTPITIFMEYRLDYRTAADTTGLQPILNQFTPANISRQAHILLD
T1 chain 2: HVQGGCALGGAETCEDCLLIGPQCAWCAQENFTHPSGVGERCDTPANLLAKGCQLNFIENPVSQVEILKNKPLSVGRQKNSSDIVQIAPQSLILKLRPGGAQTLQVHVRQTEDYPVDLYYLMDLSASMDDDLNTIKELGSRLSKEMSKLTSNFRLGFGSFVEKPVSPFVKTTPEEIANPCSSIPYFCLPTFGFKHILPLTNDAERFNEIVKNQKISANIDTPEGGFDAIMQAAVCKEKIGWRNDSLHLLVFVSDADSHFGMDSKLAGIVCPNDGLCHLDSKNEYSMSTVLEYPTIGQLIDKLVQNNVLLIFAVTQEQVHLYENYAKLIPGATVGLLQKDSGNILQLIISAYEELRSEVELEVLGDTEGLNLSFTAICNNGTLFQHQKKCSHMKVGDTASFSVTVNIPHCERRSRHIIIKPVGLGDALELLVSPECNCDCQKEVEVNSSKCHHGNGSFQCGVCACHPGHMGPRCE

T2: human integrin αvβ8 (soluble, construct not stated), P06756;P26012
T2 chain 1: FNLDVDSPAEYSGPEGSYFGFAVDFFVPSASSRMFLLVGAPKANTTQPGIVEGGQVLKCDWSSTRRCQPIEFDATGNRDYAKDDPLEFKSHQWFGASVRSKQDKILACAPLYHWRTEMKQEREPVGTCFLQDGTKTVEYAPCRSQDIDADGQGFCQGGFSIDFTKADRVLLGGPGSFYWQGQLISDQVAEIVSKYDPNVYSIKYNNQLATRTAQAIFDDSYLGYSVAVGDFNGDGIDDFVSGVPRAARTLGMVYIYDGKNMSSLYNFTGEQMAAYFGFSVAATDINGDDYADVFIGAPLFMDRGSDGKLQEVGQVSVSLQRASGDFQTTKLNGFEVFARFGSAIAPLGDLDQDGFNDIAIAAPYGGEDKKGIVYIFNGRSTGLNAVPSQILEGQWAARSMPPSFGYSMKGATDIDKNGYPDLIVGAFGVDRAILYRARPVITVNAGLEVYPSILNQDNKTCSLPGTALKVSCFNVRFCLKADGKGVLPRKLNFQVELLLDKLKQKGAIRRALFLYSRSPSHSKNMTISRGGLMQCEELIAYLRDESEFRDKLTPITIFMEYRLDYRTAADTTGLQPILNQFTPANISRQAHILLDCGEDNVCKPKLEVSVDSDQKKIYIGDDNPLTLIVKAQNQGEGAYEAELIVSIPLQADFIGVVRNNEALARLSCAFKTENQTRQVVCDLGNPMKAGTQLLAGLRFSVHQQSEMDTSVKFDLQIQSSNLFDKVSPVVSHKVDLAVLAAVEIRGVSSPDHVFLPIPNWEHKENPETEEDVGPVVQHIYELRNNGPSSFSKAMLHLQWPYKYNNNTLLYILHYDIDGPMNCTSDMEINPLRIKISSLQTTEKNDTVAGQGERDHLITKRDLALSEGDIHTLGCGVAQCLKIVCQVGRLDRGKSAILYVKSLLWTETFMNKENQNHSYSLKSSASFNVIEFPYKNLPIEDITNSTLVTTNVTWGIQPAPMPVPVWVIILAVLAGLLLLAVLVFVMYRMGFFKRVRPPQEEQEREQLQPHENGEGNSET
T2 chain 2: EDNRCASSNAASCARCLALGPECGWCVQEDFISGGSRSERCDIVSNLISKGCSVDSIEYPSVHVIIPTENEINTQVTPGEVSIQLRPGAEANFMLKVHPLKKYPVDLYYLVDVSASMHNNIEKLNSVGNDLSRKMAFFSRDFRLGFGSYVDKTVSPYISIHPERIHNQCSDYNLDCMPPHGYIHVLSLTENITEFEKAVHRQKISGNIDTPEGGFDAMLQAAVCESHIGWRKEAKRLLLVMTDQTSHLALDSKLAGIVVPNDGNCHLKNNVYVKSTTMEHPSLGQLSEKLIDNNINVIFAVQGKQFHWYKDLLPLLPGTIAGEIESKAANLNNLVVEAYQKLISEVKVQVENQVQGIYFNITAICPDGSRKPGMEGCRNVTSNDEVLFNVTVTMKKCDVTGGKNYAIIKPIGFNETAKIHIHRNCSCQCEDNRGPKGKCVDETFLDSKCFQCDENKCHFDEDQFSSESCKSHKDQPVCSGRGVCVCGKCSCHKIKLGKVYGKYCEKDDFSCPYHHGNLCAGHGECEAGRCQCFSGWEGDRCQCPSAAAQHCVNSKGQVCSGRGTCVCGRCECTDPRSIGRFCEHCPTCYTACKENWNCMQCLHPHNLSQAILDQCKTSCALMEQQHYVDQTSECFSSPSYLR

B1: B8_BP_dslf M13L; Y16I (protein)
chain: TKCVVRFNFRGDLAVIALKAVKDHLKKEGPHWNITTHNDDEVYLVVRGIHESDAKRIAKWVESTIPGISVETQCD
B2: B8_BP_dslf V15T; Y16I (protein)
chain: B1 chain with L13M, V15T
B3: B8_BP_dslf Y16I (protein)
chain: B1 chain with L13M
B4: B8_BP_dslf M13L; V15T; Y16I (protein)
chain: B1 chain with V15T

What was measured:
[1] = target: T1, human integrin αvβ6 (soluble, construct …); experiment: BLI; conditions: chain shown with the change;; parent: > 1000 nM
[2] = target: T2, human integrin αvβ8 (soluble, construct …); experiment: BLI; conditions: chain shown with the change;; parent: 1.9 nM

Binder | Kd [1] | Kd [2]
B1 | 0.7 nM | 0.3 nM
B2 | – | 0.1 nM
B3 | – | 0.2 nM
B4 | – | 0.3 nM
